# Assay: soluble on expression in E. coli; label from the status in PepcDB or PDB records
row,Sequence,soluble on expression in E. coli
1,MSLNMKTFKFFTALFATAILTACTLDMERPTNVQYIDKTDAIWQQHLQKIQKIQSYQAKGQIGYISPTERFSSRFEWQYQNPKSYTLKLYSLISKSTLWIQMHQSGMTISDNNGNQQSAANSKLLLQEIIGMDVPLEHLAYWLKGQPAMNADYQVGTNHLLGAFTYHVDGSQWTADYLTYHSNNSMPENILLKNDSTKQTLKIRVDEWIYEGGSHHHHHH,soluble
2,MSLNMKVLITASSRGIGFNLAKELLNKGHEVTITSSNIRNIENAYKELRELGTVHYFQADLSSKEDIKRMVKDAWDAMGRIEALIWNAPNVKCEPCMVHEARYRDWLEAALLHLVSPGYITTLLIQAWLEKKIKGVLIYLSSASVLEPMPPLLLADTARAGLVQLTKGITRAYGGKGIRAYVVLLGSFDTPGARENLAKIAEERGMSLEEIWRKEVIERTPLKRTGKWSELGALIDFLLSENAEYMMGSTILFDGAMTRGVNEGHHHHHH,not soluble
3,MSLNNLNTNIDFIKKSPKTELHLHIEGSLEPELMFKLSKRNKIEIPFKSVDEIRSAYNFTNLDSFLKIYYEGSNVLIREEDFFDLTWEYVLRCKQDNIVHTEIFFDPQSHLPRGISFETVINGIDKALKKAEKDFGISSKIIMCFLRHLDEESCFDVLKKAFDHKDKIIGVGLDSSEKGNPPSKFKRLFEQAVKEGFITVAHAGEEGPPEYIWDSLDILKVKRIDHGVQCLNDEKLVNKLVKEQIPLTVCPLSNVKLCVFDKLENHNLKKMLDKGLRVMVNSDDPAYFGGYLNKNLIETSRALNLNLVDIKKLIENSFKSSFLEKEKKENWLKKINEGHHHHHH,soluble
4,MSLNNMIQVAIIGAGFIGPAHLEALRRLGDVEVVALCDSRLEAAQRKARALNIAHAYDSVEALLAHPGLQVVHNCTPNHLHAQINRQILAAGLHVFSEKPLCMTAGEARELVALAARAGVVHGVSFVYRQFAMVQQAAAMIRHGEVGRIFAAHGSYLQDWMLLETDYNWRVDSAQGGASRTVADIGSHWCDTVQFMTGRRIVEVMADLSIVWPTRKAPVNGKATFSAVHEAQAYETRPVDTEDFGSVLLRFDDGSKGSFMVSQVSAGRKNRLAVEINGSLCSLAWDQEVPQRLWIGHREQPDRLLSDDPSLLRPEIADSAHYPGGHIEGWPDAFKNMMGHFYQAVRAGKMPAAGARRFAAFDDGADVMYIIEAIVKSHQEQRWVSVEREGHHHHHH,soluble
5,MSLNPTIQPYQFNIIKEQVAVLLNTYTSVNDATTVKTVQALCAEKINGLFPEEHPAVTILLDKVMDRRLTRARAEKYLDELKETVLPFKEPSTPQVTKVFRKVKKLKIPEWENMDLRNNTYVGWNDAGTQKIFILAYRENKLIGVHGTLSPTIVKGVCSICQTITNVSMFLATTKSGGDGTYTKKGNYICHDSDTCNQQLTQPEYLEAFMENVKAVKEGHHHHHH,soluble
6,MSLNQQKKQAPVELKVGQTFPLTIKRLGINGEGVGYFKKKVVFVPGALPGEEVVVQATKVQPKFSEGRIKKIRKASEHRVAPPCPVYEQCGGCQLQHLAYSQQLREKRDIVIQSLERHTKFKVENMEIKETIGMDNPWNYRNKSQFQIGRSQSGSIIAGLYGLDSHDIVPIKDCIVQHPATNKTTGIVRRILEDFNVSVYNERKRKGDVRTIVTRVGFETGEVQVVLVTAKETLPHKEEIVKAIQKRLPEVKSIIQNVNGAKTSVIFGEKTKQLAGKTVIQEVLGDVSFELSARAFFQLNPEQTVKLYDEVKKAAQLTGKEKVVDAYCGVGTIGMWVADGAKEVRGMDVIKESIDDAKKNAKKHGMANATYVTGTAEHWLPKWTKEGFRPDVVIVDPPRTGCDSTFLDTIKKVKPKRFVYVSCNPSTLAKDLQTLSKDYRVDYIQPVDMFPQTAHVEAVARLVLKSSNEGHHHHHH,not soluble
7,MSLNQRTLFDKIWDEHVVDVGADGTTLLYVDRHFLHEVTSPQAFRGLQLAGRRPWRSDANLAMPDHNVPTKDRAAHLDDALARAQIEALDRNCAEFAVPLFRLSDPRQGIVHVSGPEQGASLPGSVIVCGDSHTSTHGALATIAHGIGTSEVEHVLATQTLLARKPARMRVNFHGVAGAGVSAKDMALAMIAKVGAAGAQGYAIEYAGEAVRCLSVEARMTLCNMSIEAGARCGMVAVDDKTIEYLRGRPMAPRGESWDLAVRTWRALVSDHDAQFDVEIEIDVGMLGPLVTWGTSPDMVISVDEKIPDPAAEKDGTRRAGMERALRYMDLAPGTPITDVRLDRIFIGSCTNSRLEDLRAAAEVIRGKHVAASIRQALVVPGSGLVKQQAENEGLHQLFIDAGFEWRDAGCSMCVGMNADHLLSGERCASTSNRNFEDRQGVGGRTHLVSPAMAAAAAIAGHFVDIRRSEGHHHHHH,not soluble
8,MSLNSEAFTGNAAQRFLFSSSDGTKIVSIADRGHLRWCHSTSTTYKSLDFDLQFEGKVEGAVSSTTADYVCIYNRDELHVLEVPWMYSGEENGLKHLCHIYSHKFDENHSIKQVLFHPKSYLDSTILVLTNDDSIFMINTDDNRSDKNMINLNSKNSALGLYDRINDIQKIIFSQDGLSLLILSAEEGCDIFTIYPCLPRRWDISLHEVDTLFAKSLLLYNNMNVNTTPQEKRNIVKQLNFMEKIRGQKTAFRNDKKPLILEDAYLNAQPQGPFSMTPYPNELYDFMATDINIIQITQNISLLAIAFSNGTVLLFLSDLEPIMSWDISRFPGSNSLALLEQIKLEITDNAKFLSIPGTYGKFVVTDNVKSNFFVNTCDWSTILAQIIDDSDIKLLANLKVKSNIENLQQLATTFKSIIYWKNENISCNYIISDKKIEELDEGHHHHHH,soluble
9,MSLPEHTPSDRLALDAMLGKLATYLRMCGYDTAYALDRDAEADDDLLDIAEREDRLVITRDSDLATRAPESVLLSEREIEDQLRELADAGFRLSLAPEPDYCGVCNSPVEEVDPVEPTPEYAPSAGDERVWRCTDCGQHFWKGSHWASVEATLEDVEGHHHHHH,soluble
10,MSLPLVTLNSVRFAGMATCVPKRVVSNLTDCKPQIRPERERLVRNIGIELRRLTQEWQCFSDLAFDAASKLIESLEWKLEEIDALIVVTQSPDYLAPATAIILQDRLGLPHTTLAFDVNLGCSGYPFGLHLLGSLISAGGIKKGLVLVGDSGAQLNDPIFSDAGTATAMEFCADAPPMYFDLNSDGSGHKAIILPVGGHREPVGIQHLVPFRENENDHWHRAIDLQLDGTAVLSFSTQRVPPAVEKLLEYANASKDEVDYFIFHQANRMINETIRKKLALPVEKVPSTLRDFGNTSGASLPVTMTARINKQLEEGSKRLVLSGFGIGLSWGTCLVDIQGAKFPDLIESEGHHHHHH,soluble
11,MSLPNIDSLFVTRLYRAALSEHGPAIDAKEMEASCYSIAEDDEAGQGWCDENGYPGYTSYASLSDLPWRFPIFADLVKVLDAHVAAFAEDLEFDLDGKELKLEDIWINILPEGGMHASHIHPHSVISGTTYVAMPEGTSALKLEDPRSARMMASPVRRKDARQELRTFIYAKPVVGDVLLWESWLRHEVPMNMSEEDRISVSFNYSWGEGHHHHHH,soluble
12,MSLPSEISDKATVPIEIGLTAAIVAIEANQPMILTASGDGGGSLAGLPYGPFDAITHRTLEIGLRAWVEEQTGLRLGYVEQLYTFGDRGRHARLGDTEVHVASIGYLALTRAADNAARAAGATFEPWYRFFPWEDWREQQPAIIARDIIPELTAWAAQAEEPGMARALARKDRVRLFFGVDGAPWDEERVLDRYELLYEAGLIEEARRDGRPAALSRSKAPTLGVAMRFDHRRILATAIARLRAKLKYRPVVFELLPPEFTLTELQHTVEAISGRHLHKQNFRRLVEAGALVEPTGEM,not soluble
13,MSLQEGEFEPTWESLQNYKVPEWFRNAKFGIWAHWGPQCVEGSGDWMARSLYLEGSREYKHHVEHYGHPSEVGFKDILPLFKAEKWDPDKLVSFYKKIGAQYFFALGNHHDNYDLWDSQYQEWNSVNIGPKKDILAGWAEAAKKNGLPFGISFHADHAWSWYEPAQRYDRHGEKAGVPYDGCLTKEDGKGKWWEGYDPQKLYAQNHPLSAGSWADGMIHRQWAWGNGVCIPTQEYVTNFYDRTVDAINRYNPDLIYFDVTGVPFYPISDAGLKIAAHFYNHNMVVRKGDFSAVMFGKILTDEQRKALVWDVERGSPNSIYEEPWQTCSCLGGWHYDTRLAENGWYKSASDVVKLLVDVVSKNGNLLLSVPLRADGTFDEKEEAILNEFGNWMSMNKEAIYDTRPWKVFGEGPIANADIKINAQGFNEGAYTKATASEIRFTQTKKYLYATVLAWPEEKQVVIQSLATGSELYPDKITKIELLGYGKVSFTRTAQGVVIDMPDVQLNKIAPVFKIKKEGHHHHHH,soluble
14,MSLQGIHTISFVGLGLIGASLMQALKRAAGATGRNIEMIGFDPAFDAADIVAITGECGLDRFEPDPAKLYNADLVVLCAPVVTNIALLDEAKRHIRKDTLVSDVSSTKAEIAAKAQELGIEFIGMHPIAGREQQGYQAASPELLDGRLVILCTECATLETTLATELAGLLRAAGCKPLFMSPEEHDRVYANISHLPQLISTALMAHCRENVEWAGPGFASMARLAGSPWAVWRDIVETNRSNIADEMEAFSALLADVAGEVRGGNFEALESKFREANDLYQRLQERSSEGHHHHHH,soluble
15,MSLQHACIFLELLKITYIHCMKRLLSLYLVLSGFLLHAQTVKELKTVASSFSEMAKIPAGSFLKHEYSFLNIQPTKQDTNLLFCIHPEATITKVTTSFYISTHEVTNAEYRQFIVWVTDSLIKNNITFDTVFYRYTTPSGKSTRISIVPDTMNRVLRDMFGYCNLNYYTHKEFISFPTTNISWHQAQAYIHWLNNRMLELLKKNHVPTTDWGKYRLPEALEWEYAAMIVEKNGDWFNQRNPDAYNIYGWLDYPLTTKEGLYKANFGLIRDLNHMVIKARWDDNYDALAPVKKYVPSLMGLYDLSGNVSEWTNTSISLDSLNKFYAGYYSNLLQTKYQHLFEELLKPAPDWKKFDAFKAESVRGRYDAQAQQYWFNEYVIRVKEMENYNRSILSRISDGMLVKGGSWDNPPVYMINTCSQVLSKNFTTPQTGFRVALTLEPAFEKLLGSYLTGEGHHHHHH,not soluble
16,MSLQIKDEILSLLKRGKNLLAFSYGSDSSVLFYLLMQEKIDFDLVMINYKTRKNSDLEELKAKELALKFHKKIFIKHAPKFQSNFEKKARDFRYDFFEKICLEQGYDHLILAHHLNDQFEWFLMQLSRGAGLAEILGMQECEKRSNYTLLRPLLFISKDEISSFLKEKDIFYFHDESNENEKYFRNYIRKNFSNAFVSEFHQGLKRSFSYLDEDRKKLYDFENIKEIQGLLICPKNESLIARAVKMKGLLLSTAQRKELLKGDCVLGGKIALAYKNEQAIVFEYETCQKLPKNFKEECRIAKIPRLLRAYLYNHKIDISSLSEGHHHHHH,soluble
17,MSLQLSKAAEMCYEITNSYLHIDQKSQIIASTQEAIRLTRKYLLSEIFVRWSPLNGEISFSYNGGKDCQVLLLLYLSCLWEYFFIKAQNSQFDFEFQSFPMQRLPTVFIDQEETFPTLENFVLETSERYCLSLYESQRQSGASVNMADAFRDFIKIYPETEAIVIGIRHTDPFGEALKPIQRTDSNWPDFMRLQPLLHWDLTNIWSFLLYSNEPICGLYGKGFTSIGGINNSLPNPHLRKDSNNPALHFEWEIIHAFGKDAEGERSSAINTSPISVVDKERFSKYHDNYYPGWYLVDDTLERAGRIKNEGHHHHHH,soluble
18,MSLQNHDLESIKQAALIEYEVREQGSSDVLDSNISKEPLEFIIGANQIIVGLEKAVLKAQIGEWEEIVIAPEEAYGVYESGYLQEVPRDQFEGIELEKGMSVFGQTEDNQTIQATIKDFSNTHVMVDYNHPLAGKTLAFRFKVLGFREVSEEEILASHHDSGTGCCGGHGGHGGKKGGGCGCSCSHGEGGSHHHHHH,soluble
